This data set addresses NELF complex WT (NELF-A/B/C-D/E) (human, UniProt Q9H3P2;Q8WX92;Q8IXH7;P18615 1-528;49-628;1-590;1-380). As to the kind of experiment: fluorescence anisotropy; NELF-TAR complex: 20 mM HEPES/NaOH pH 7.4, 150 mM NaCl, 10% glycerol, 1 mM DTT, mixed 30 min at 4 C; anisotropy conditions only by reference [29]; Hsh49-Cus1-U2 reconstituted 30 min on ice; Dnmt2 dialysed in 50 mM HEPES pH 7.5, 150 mM NaCl, 2 mM DTT. As to conditions: protein: recombinant; copies: 1;1;1;1; hairpin.

Sequence of NELF complex WT (NELF-A/B/C-D/E) (Q9H3P2 whole entry, chain 1 of 4): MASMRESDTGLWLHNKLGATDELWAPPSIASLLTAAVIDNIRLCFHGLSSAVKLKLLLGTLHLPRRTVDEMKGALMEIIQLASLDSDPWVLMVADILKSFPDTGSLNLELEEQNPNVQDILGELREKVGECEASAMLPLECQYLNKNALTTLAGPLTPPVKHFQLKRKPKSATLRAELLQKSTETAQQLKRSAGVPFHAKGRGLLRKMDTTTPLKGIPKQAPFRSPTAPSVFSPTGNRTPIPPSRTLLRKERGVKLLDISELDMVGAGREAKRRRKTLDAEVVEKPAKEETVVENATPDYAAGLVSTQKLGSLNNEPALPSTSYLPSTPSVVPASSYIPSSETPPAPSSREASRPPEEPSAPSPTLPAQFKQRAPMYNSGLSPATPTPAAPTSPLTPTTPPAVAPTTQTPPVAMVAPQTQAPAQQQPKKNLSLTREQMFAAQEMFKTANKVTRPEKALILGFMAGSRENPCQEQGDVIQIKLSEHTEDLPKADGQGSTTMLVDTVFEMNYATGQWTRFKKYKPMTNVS
Sequence of NELF complex WT (NELF-A/B/C-D/E) (Q8WX92 whole entry, chain 2 of 4): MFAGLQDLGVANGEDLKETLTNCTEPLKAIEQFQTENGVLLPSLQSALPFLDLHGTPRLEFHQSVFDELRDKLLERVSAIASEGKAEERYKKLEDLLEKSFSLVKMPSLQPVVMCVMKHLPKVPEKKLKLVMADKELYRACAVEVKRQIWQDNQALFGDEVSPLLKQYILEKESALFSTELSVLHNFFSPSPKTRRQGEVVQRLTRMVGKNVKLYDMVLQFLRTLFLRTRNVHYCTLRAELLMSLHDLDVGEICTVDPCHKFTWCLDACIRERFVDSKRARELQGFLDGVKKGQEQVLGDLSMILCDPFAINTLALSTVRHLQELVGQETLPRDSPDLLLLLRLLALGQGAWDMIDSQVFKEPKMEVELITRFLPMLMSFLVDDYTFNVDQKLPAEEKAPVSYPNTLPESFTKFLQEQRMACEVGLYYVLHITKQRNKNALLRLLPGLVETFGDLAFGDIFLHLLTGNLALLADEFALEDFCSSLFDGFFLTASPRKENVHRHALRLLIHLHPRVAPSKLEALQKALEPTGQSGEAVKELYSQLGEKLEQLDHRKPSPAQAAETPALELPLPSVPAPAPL
Sequence of NELF complex WT (NELF-A/B/C-D/E) (Q8IXH7 whole entry, chain 3 of 4): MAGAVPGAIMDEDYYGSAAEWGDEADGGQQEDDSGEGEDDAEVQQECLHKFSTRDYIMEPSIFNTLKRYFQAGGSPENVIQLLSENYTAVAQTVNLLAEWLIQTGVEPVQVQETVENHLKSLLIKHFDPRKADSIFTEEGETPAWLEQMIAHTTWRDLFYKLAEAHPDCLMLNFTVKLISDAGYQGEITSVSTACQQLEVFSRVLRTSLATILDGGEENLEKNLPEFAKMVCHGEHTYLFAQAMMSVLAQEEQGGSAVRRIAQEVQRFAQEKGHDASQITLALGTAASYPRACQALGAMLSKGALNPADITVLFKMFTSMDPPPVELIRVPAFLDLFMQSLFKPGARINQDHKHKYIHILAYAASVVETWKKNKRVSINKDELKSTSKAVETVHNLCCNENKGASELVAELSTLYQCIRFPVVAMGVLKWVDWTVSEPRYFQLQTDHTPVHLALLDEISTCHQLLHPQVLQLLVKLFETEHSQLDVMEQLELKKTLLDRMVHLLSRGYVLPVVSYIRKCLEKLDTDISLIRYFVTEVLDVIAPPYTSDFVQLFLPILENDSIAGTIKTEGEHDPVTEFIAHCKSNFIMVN
Sequence of NELF complex WT (NELF-A/B/C-D/E) (P18615 whole entry, chain 4 of 4): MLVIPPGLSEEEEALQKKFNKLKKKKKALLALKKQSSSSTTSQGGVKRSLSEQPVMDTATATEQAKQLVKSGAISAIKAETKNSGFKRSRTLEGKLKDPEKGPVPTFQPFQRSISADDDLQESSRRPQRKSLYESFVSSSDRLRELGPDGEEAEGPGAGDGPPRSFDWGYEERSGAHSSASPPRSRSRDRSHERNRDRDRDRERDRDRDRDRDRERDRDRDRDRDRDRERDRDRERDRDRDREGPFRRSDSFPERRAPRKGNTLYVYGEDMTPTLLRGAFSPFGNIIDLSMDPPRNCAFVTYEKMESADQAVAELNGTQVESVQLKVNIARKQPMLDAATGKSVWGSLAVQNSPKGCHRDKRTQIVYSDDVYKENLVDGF

On to CCAGAUCUGAGCCUGGGAGCUCUCUGG (structured_RNA) [HIV-1 TAR stem-loop RNA], for which the binding result is listed as “binds”.
